Experimental data from US20230002466A1 (ELPIS BIOPHARMACEUTICALS, published 2023).
Where a chain is given by its changes, count along the chain named. Read-outs that look alike come from different tables or passages of the source.

Tests used:
[1] = target: T1, human IL2Rβ Fc fusion protein (human, UniProt P14784 27-239); assay: ELISA, receptor-Fc coated, anti-Flag HRP
T1 construct: also called Recombinant Fc-tagged human IL2Rβ; not shown: Fc
T1 sequence (looked up): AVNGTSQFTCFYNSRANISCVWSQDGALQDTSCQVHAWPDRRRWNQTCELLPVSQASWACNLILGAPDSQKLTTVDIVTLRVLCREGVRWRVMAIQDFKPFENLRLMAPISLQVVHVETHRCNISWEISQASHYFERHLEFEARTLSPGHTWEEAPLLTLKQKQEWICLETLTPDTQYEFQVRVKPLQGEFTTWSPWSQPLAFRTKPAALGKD
Experimental: (§1) Briefly, 384 well plate was immobilized with human IL2Rα and IL2Rβ Fc fusion proteins at a final concentration of 2 ug/mL in 1×PBS in total volume of 25 uL per well. The plate was incubated overnight at 4 C and blocked with 80 uL of superblock per well for 1 hour. […] Each dilution was added to IL2Rα or IL2Rβ wells in parallel in duplicates. The IL2 mutant binding was detected by adding 25 uL of anti-Flag HRP diluted at 1:5000 in 1×PBST. In between each step, the plate was washed three times with 1×PBST using a plate washer. The plate was then developed with 25 uL of TMB substrate for five minutes and stopped by adding 25 ul of 2N sulfuric acid. The plate was read at OD450 nm Biotek plate reader and the EC50 was analyzed with Prism 8.1 software to generate EC50 values (FIG. 15A for IL2Rα, and FIG. 15B for IL2Rβ, summarized in Table 9).

[2] = target: T2, human IL2Rα Fc fusion protein (human, UniProt P01589 22-213, limits assumed); assay: ELISA, receptor-Fc coated, anti-Flag HRP
T2 construct: also called Recombinant Fc-tagged human IL2Rα; not shown: Fc
T2 sequence (looked up): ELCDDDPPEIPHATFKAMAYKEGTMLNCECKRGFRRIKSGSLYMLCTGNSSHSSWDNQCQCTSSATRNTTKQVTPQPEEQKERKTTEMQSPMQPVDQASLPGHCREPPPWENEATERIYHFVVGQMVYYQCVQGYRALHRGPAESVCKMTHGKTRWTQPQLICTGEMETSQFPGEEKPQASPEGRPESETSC
Experimental: as §1

human IL2Rβ [3] = target: T3, human IL2Rβ (human, UniProt P14784 27-239); assay: SPR, IL2Rβ captured on Protein A chip
T3 construct: also called IL2β; CD122
T3 sequence (looked up): T1 sequence (looked up)
Experimental: The assay was run with Biacore T200 control software version 2.0. For each cycle, 1 ug/mL of human IL2Rβ was captured for 60 seconds at flow rate of 10 uL/min on flow cell 2 in 1×HBSP buffer on Protein A sensor chip. 100 nM of HIS and Flag tag purified each IL2 mutant was 2-fold serial diluted and injected onto both reference flow cell 1 and IL2Rβ captured flow cell 2 for 150 seconds at flow rate of 30 uL/min followed by washing for 300 seconds. The flow cells were then regenerated with Glycine pH2 for 60 seconds at a flow rate of 30 uL/min. The assay was set up with 8 serial diluted concentration points in 96-well format. The kinetics data was analyzed with Biacore T200 evaluation software 3.0. The specific binding response unit was derived from subtraction of binding to reference flow cell 1 from target flow cell 2 (FIGS. 16A-16F, Table 10).

[4] = target: T1, human IL2Rβ Fc fusion protein; assay: ELISA, Fc-tagged receptor coated, anti-HisTag-HRP
Experimental: (§2) Recombinant Fc-tagged human IL2Rα and IL2Rβ were added in 25 uL of 1×PBS to wells of 384-well plate and incubated overnight at 4° C. to coat the plates. Plates were washed three times with 0.05% Tween20/1×PBS. Plates were blocked with 100 uL of SuperBlock for 1 hr at RT and then washed 3 times with 0.05% Tween20/1×PBS. IL2 mutants were diluted in 0.05% Tween 20/1×PBS from 1000 nM to 0 nM and added to plates for 2 hrs at room temperature. Plates were then washed 6 times with 0.05% Tween20/1×PBS. Anti-HisTag-HRP was diluted 1:5000 in 0.05% Tween20/1×PBS and added to plates for 1 hr at RT. Plates were then washed 6 times with 0.05% Tween 20/1×PBS, and TMB was added to develop blue color. Reactions were stopped with 2N […] and light absorbance at 450 nm was read on a BioTek plate reader.

[5] = target: T2, human IL2Rα Fc fusion protein; assay: ELISA, single point, Fc-tagged human IL2Rα coated, anti-His-HRP; concentration not printed (Example 14)
Experimental: as §2

human IL2Rβ [6] = target: T3, human IL2Rβ; assay: SPR, IL2Rβ captured on Protein A chip; remark: listed apart in the source
Experimental: Kinetic analysis of the receptor binding activities of IL2Rβ agonist with IL2Rα reduced activity mutations have been assessed by SPR technology with Biacore T200. The assay was run with Biacore T200 control software version 2.0. For each cycle, 1 ug/mL of human IL2Rβ was captured for 60 seconds at flow rate of 10 ul/min on flow cell 2 in 1×HBSP buffer on Protein A sensor chip. 100 nM of HIS and Flag tag purified each IL2 mutant was 2 fold serial diluted and injected onto both reference flow cell 1 and IL2Rβ captured flow cell 2 for 150 seconds at flow rate of 30 ul/mins followed by wash for 300 seconds. The flow cells were then regenerated with Glycine pH2 for 60 seconds at flow rate of 30 ul/mins. The assay was set up with 8 serial diluted concentration points in 96 well format. The kinetics data was analyzed with Biacore T200 evaluation software 3.0. The specific binding response unit was derived from subtraction of binding to reference flow cell 1 from target flow cell 2.

B1: EP242 (ligand)
chain: APTSSSTKKTQLQLEHLLLDLQMILNGINNYKNPKLTRMLTFKFYMPKKATELKHLQCLEEELKPLEEVLNLAQSKNFHLTARDAISNIRVIVQELKGSETTFMCEYADETATIVEFLNRWITFCQSIISTLT
notes: EP001 back-mutation clone; not shown: His and Flag tags
EC50 [1]: 5.7 nM | EC50 [2]: 8.7 nM | Kd (human IL2Rβ [3]): 7.16 nM | koff (human IL2Rβ [3]): 0.0241 s⁻¹ | kon (human IL2Rβ [3]): 3.36e+06 M⁻¹ s⁻¹

B2: EP343 (ligand)
chain: B1 chain with R38D, Y45S, A82P, S87D
notes: not shown: His and Flag tags
EC50 [4]: 19.7 nM | binding result [5]: no binding (tested: not printed)

B3: EP262 (ligand)
chain: B1 chain with S87D, R90N, V93I, Q94L
notes: not shown: His and Flag tags
EC50 [1]: 53.2 nM | EC50 [2]: 32.1 nM

B4: EP351 (ligand)
chain: B1 chain with F42A, A82P, S87D
notes: not shown: His and Flag tags
EC50 [4]: 21.2 nM | binding result [5]: no binding (tested: not printed)

B5: EP334 (ligand)
chain: B1 chain with K35S, F42G, R90N, V93I
notes: not shown: His and Flag tags
EC50 [4]: 28.6 nM | binding result [5]: no binding (tested: not printed)

B6: EP410 (ligand)
chain: B1 chain with R38V, Y45S, I86V, S87D, I89M, V93I
notes: not shown: His and Flag tags
Kd (human IL2Rβ [6]): 0.827 nM | koff (human IL2Rβ [6]): 0.00594 s⁻¹ | kon (human IL2Rβ [6]): 7.19e+06 M⁻¹ s⁻¹

B7: EP335 (ligand)
chain: B1 chain with K35S, F42G, A82P, S87D
notes: not shown: His and Flag tags
EC50 [4]: 59.1 nM | binding result [5]: no binding (tested: not printed)

B8: EP348 (ligand)
chain: B1 chain with R38V, Y45S, A82P, S87D, V93I, Q94L
notes: not shown: His and Flag tags
EC50 [4]: 124 nM | binding result [5]: no binding (tested: not printed)

B9: EP256 (ligand)
chain: B1 chain with A85L, S87D
notes: not shown: His and Flag tags
EC50 [1]: 362 nM | EC50 [2]: 5.3 nM

B10: EP255 (ligand)
chain: B1 chain with A85L, S87D, R90N, V93I
notes: not shown: His and Flag tags
EC50 [1]: 360 nM | EC50 [2]: 4.3 nM

B11: EP344 (ligand)
chain: B1 chain with R38D, Y45S, A82P, S87D, V93I, Q94L
notes: not shown: His and Flag tags
EC50 [4]: 50.7 nM | binding result [5]: no binding (tested: not printed)

B12: EP342 (ligand)
chain: B1 chain with R38D, Y45S, R90N, V93I
notes: not shown: His and Flag tags
EC50 [4]: 58.9 nM | binding result [5]: no binding (tested: not printed)

B13: EP331 (ligand)
chain: B1 chain with K35G, R38E, A82P, S87D
notes: not shown: His and Flag tags
EC50 [4]: 39.3 nM | binding result [5]: no binding (tested: not printed)

B14: EP263 (ligand)
chain: B1 chain with S87D, Q94L
notes: not shown: His and Flag tags
EC50 [1]: 1.3 nM | EC50 [2]: 4.9 nM | Kd (human IL2Rβ [3]): 2.79 nM | koff (human IL2Rβ [3]): 0.0191 s⁻¹ | kon (human IL2Rβ [3]): 6.84e+06 M⁻¹ s⁻¹

B15: EP247 (ligand)
chain: B1 chain with T81R, S87D
notes: not shown: His and Flag tags
EC50 [1]: 4.7 nM | EC50 [2]: 8.3 nM | Kd (human IL2Rβ [3]): 7.23 nM | koff (human IL2Rβ [3]): 0.0304 s⁻¹ | kon (human IL2Rβ [3]): 4.2e+06 M⁻¹ s⁻¹

B16: EP411 (ligand)
chain: APTSSSTKKTQLQLEHLLLDLQMILNGINNYKNPKLTVMLTFKFSMPKKATELKHLQCLEEELKPLEEVLNLAQSKNFHLGVTDSISNAIVLARELKGSETTFMCEYADETATIVEFLNRWITFCQSIISTLT
notes: not shown: His and Flag tags
Kd (human IL2Rβ [6]): 0.461 nM | koff (human IL2Rβ [6]): 0.000839 s⁻¹ | kon (human IL2Rβ [6]): 1.82e+06 M⁻¹ s⁻¹

B17: EP254 (ligand)
chain: B1 chain with A85L, V93I
notes: not shown: His and Flag tags
EC50 [1]: 556 nM | EC50 [2]: 4.3 nM

B18: EP330 (ligand)
chain: B1 chain with K35G, R38E, R90N, V93I
notes: not shown: His and Flag tags
binding result [5]: no binding (tested: not printed)

B19: EP332 (ligand)
chain: B1 chain with K35G, R38E, A82P, S87D, V93I, Q94L
notes: not shown: His and Flag tags
EC50 [4]: 44 nM | binding result [5]: no binding (tested: not printed)

B20: EP352 (ligand)
chain: B1 chain with F42A, A82P, S87D, V93I, Q94L
notes: not shown: His and Flag tags
EC50 [4]: 33.8 nM | binding result [5]: no binding (tested: not printed)

B21: EP251 (ligand)
chain: B1 chain with A82P, S87D, R90N, V93I
notes: not shown: His and Flag tags
EC50 [1]: 2.5 nM | EC50 [2]: 16.8 nM

B22: EP336 (ligand)
chain: B1 chain with K35S, F42G, A82P, S87D, V93I, Q94L
notes: not shown: His and Flag tags
EC50 [4]: 133 nM | binding result [5]: no binding (tested: not printed)

B23: EP261 (ligand)
chain: B1 chain with S87D, R90N
notes: not shown: His and Flag tags
EC50 [1]: 124 nM | EC50 [2]: 2.9 nM
